Data from PMC9482650, “Quantitative fragmentomics allow affinity mapping of interactomes” (Nature Communications, 2022).

T1: PCLO, Q9Y6V0
T1 sequence (Q9Y6V0 4491-4600, limits assumed, looked up): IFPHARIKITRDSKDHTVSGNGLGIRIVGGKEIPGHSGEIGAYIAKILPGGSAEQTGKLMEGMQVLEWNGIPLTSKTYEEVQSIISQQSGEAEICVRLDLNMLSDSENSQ

T2: GRIP1_5, Q9Y3R0
T2 sequence (Q9Y3R0 568-668, limits assumed, looked up): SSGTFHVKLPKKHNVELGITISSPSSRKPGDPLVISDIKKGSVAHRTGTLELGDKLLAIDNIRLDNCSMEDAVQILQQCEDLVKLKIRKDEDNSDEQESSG

T3: LIN7A, O14910
T3 sequence (O14910 103-200, limits assumed, looked up): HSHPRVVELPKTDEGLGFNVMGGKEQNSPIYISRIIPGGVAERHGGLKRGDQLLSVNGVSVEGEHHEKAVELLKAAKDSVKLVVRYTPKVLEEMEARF

T4: PDZRN3_1, Q9UPQ7
T4 sequence (Q9UPQ7 244-349, limits assumed, looked up): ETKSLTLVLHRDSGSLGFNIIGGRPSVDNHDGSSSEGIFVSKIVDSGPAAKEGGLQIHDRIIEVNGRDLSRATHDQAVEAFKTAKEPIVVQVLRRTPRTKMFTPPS

T5: PTPN13_1, Q12923
T5 sequence (Q12923 1088-1188, limits assumed, looked up): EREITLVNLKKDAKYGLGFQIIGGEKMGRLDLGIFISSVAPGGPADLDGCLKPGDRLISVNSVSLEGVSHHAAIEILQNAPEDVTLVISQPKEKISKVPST

T6: MPP6, Q9NZW5
T6 sequence (Q9NZW5 125-219, limits assumed, looked up): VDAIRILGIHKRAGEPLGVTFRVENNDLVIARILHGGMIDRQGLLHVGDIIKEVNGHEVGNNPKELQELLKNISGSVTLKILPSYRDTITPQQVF

T7: MPP7, Q5T2T1
T7 sequence (Q5T2T1 134-230, limits assumed, looked up): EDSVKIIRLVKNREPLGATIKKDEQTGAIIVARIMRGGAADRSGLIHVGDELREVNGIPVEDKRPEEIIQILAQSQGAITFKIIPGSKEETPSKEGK

T8: ARHGEF11, O15085
T8 sequence (O15085 42-136, limits assumed, looked up): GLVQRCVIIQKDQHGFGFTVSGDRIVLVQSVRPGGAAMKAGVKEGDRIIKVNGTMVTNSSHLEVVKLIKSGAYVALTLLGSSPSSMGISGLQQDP

T9: SYNJ2BP, P57105
T9 sequence (P57105 8-110, limits assumed, looked up): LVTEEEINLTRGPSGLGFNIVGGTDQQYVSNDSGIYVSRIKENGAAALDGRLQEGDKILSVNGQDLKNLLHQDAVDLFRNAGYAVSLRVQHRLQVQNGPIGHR

T10: GRIP1_7, Q9Y3R0
T10 sequence (Q9Y3R0 999-1096, limits assumed, looked up): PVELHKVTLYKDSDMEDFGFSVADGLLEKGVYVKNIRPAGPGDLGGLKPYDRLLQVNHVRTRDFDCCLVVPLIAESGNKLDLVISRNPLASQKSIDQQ


Molecular target: T1, PCLO, Q9Y6V0
Assay: holdup assay
Design: key: below the threshold = too weak to quantify, mostly under pKd 3.1 to 4
Details: plain residues with an end cap or a label only (N-terminal biotin on a linker: ado-ado)

pKd	Binder
below the threshold	PKSNSSKEYV [CLDN7, O95471]

Molecular target: GRASP, Q7Z6J2
Assay: holdup assay
Design: key: below the threshold = too weak to quantify, mostly under pKd 3.1 to 4
Details: plain residues with an end cap or a label only (N-terminal biotin on a linker: ado-ado)

Chain of GRASP, Q7Z6J2 (Q7Z6J2 96-193): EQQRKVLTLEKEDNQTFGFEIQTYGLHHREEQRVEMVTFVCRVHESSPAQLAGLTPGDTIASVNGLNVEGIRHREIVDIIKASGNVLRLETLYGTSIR

pKd	Binder
below the threshold	PKSNSSKEYV [CLDN7, O95471]

Molecular target: MAGI2_3, Q86UL8
Assay: holdup assay
Design: key: below the threshold = too weak to quantify, mostly under pKd 3.1 to 4
Details: plain residues with an end cap or a label only (N-terminal biotin on a linker: ado-ado)

Chain of MAGI2_3, Q86UL8 (Q86UL8 600-682): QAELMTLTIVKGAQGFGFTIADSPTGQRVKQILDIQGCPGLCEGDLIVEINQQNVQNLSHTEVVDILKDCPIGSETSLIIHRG

pKd	Binder
below the threshold	PKSNSSKEYV [CLDN7, O95471]

Molecular target: T2, GRIP1_5, Q9Y3R0
Assay: holdup assay
Design: key: below the threshold = too weak to quantify, mostly under pKd 3.1 to 4
Details: plain residues with an end cap or a label only (N-terminal biotin on a linker: ado-ado)

pKd	Binder
below the threshold	PKSNSSKEYV [CLDN7, O95471]

Molecular target: T3, LIN7A, O14910
Assay: holdup assay
Design: key: below the threshold = too weak to quantify, mostly under pKd 3.1 to 4
Details: plain residues with an end cap or a label only (N-terminal biotin on a linker: ado-ado)

pKd	Binder
below the threshold	PKSNSSKEYV [CLDN7, O95471]

Molecular target: SCRIB_2, Q14160
Assay: holdup assay
Design: key: below the threshold = too weak to quantify, mostly under pKd 3.1 to 4
Details: plain residues with an end cap or a label only (N-terminal biotin on a linker: ado-ado)

Chain of SCRIB_2, Q14160 (Q14160 857-960): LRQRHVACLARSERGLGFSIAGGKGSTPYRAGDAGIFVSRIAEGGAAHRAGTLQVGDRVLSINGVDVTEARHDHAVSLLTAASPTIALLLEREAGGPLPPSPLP

pKd	Binder
below the threshold	PKSNSSKEYV [CLDN7, O95471]

Molecular target: T4, PDZRN3_1, Q9UPQ7
Assay: holdup assay
Design: key: below the threshold = too weak to quantify, mostly under pKd 3.1 to 4
Details: plain residues with an end cap or a label only (N-terminal biotin on a linker: ado-ado)

pKd	Binder
below the threshold	PKSNSSKEYV [CLDN7, O95471]

Molecular target: Inadl_4, Q8NI35
Assay: holdup assay
Design: key: below the threshold = too weak to quantify, mostly under pKd 3.1 to 4
Details: plain residues with an end cap or a label only (N-terminal biotin on a linker: ado-ado)

Chain of Inadl_4, Q8NI35 (Q8NI35 547-651): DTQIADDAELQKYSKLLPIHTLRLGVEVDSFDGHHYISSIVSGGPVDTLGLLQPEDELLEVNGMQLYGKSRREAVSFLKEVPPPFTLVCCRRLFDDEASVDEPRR

pKd	Binder
below the threshold	PKSNSSKEYV [CLDN7, O95471]

Molecular target: HTRA1, Q92743
Assay: holdup assay
Design: key: below the threshold = too weak to quantify, mostly under pKd 3.1 to 4
Details: plain residues with an end cap or a label only (N-terminal biotin on a linker: ado-ado)

Chain of HTRA1, Q92743 (Q92743 360-477): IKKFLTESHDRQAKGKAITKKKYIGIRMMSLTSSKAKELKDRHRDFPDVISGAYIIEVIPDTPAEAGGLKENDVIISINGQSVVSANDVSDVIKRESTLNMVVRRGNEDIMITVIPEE

pKd	Binder
3.72	PKSNSSKEYV [CLDN7, O95471]

Molecular target: GIPC2, Q8TF65
Assay: holdup assay
Design: key: below the threshold = too weak to quantify, mostly under pKd 3.1 to 4
Details: plain residues with an end cap or a label only (N-terminal biotin on a linker: ado-ado)

Chain of GIPC2, Q8TF65 (Q8TF65 112-203): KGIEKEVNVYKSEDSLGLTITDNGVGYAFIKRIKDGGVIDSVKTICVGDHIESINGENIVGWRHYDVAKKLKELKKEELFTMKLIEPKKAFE

pKd	Binder
below the threshold	PKSNSSKEYV [CLDN7, O95471]

Molecular target: T5, PTPN13_1, Q12923
Assay: holdup assay
Design: key: below the threshold = too weak to quantify, mostly under pKd 3.1 to 4
Details: plain residues with an end cap or a label only (N-terminal biotin on a linker: ado-ado)

pKd	Binder
below the threshold	PKSNSSKEYV [CLDN7, O95471]

Molecular target: T6, MPP6, Q9NZW5
Assay: holdup assay
Design: key: below the threshold = too weak to quantify, mostly under pKd 3.1 to 4
Details: plain residues with an end cap or a label only (N-terminal biotin on a linker: ado-ado)

pKd	Binder
below the threshold	PKSNSSKEYV [CLDN7, O95471]

Molecular target: FRMPD2_1, Q68DX3
Assay: holdup assay
Design: key: below the threshold = too weak to quantify, mostly under pKd 3.1 to 4
Details: plain residues with an end cap or a label only (N-terminal biotin on a linker: ado-ado)

Chain of FRMPD2_1, Q68DX3 (Q68DX3 770-861): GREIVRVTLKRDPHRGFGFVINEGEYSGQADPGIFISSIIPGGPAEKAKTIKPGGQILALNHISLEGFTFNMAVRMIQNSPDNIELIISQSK

pKd	Binder
below the threshold	PKSNSSKEYV [CLDN7, O95471]

Molecular target: GRID2IP_1, A4D2P6
Assay: holdup assay
Design: key: below the threshold = too weak to quantify, mostly under pKd 3.1 to 4
Details: plain residues with an end cap or a label only (N-terminal biotin on a linker: ado-ado)

Chain of GRID2IP_1, A4D2P6 (A4D2P6 1-87): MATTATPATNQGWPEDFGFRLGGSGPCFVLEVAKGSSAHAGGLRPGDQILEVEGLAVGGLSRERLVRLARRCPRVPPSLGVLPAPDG

pKd	Binder
below the threshold	PKSNSSKEYV [CLDN7, O95471]

Molecular target: T7, MPP7, Q5T2T1
Assay: holdup assay
Design: key: below the threshold = too weak to quantify, mostly under pKd 3.1 to 4
Details: plain residues with an end cap or a label only (N-terminal biotin on a linker: ado-ado)

pKd	Binder
below the threshold	PKSNSSKEYV [CLDN7, O95471]

Molecular target: GRIP2_6, Q9C0E4
Assay: holdup assay
Design: key: below the threshold = too weak to quantify, mostly under pKd 3.1 to 4
Details: plain residues with an end cap or a label only (N-terminal biotin on a linker: ado-ado)

Chain of GRIP2_6, Q9C0E4 (Q9C0E4 648-740): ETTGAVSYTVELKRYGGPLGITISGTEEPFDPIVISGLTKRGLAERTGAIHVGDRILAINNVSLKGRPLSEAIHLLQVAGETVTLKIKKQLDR

pKd	Binder
below the threshold	PKSNSSKEYV [CLDN7, O95471]

Molecular target: AHNAK1, Q09666
Assay: holdup assay
Design: key: below the threshold = too weak to quantify, mostly under pKd 3.1 to 4
Details: plain residues with an end cap or a label only (N-terminal biotin on a linker: ado-ado)

Chain of AHNAK1, Q09666 (Q09666 4-100): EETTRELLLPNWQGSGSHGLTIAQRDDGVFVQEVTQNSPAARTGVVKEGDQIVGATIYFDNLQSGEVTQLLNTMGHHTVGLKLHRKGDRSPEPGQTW

pKd	Binder
below the threshold	PKSNSSKEYV [CLDN7, O95471]

Molecular target: MAST2, Q6P0Q8
Assay: holdup assay
Design: key: below the threshold = too weak to quantify, mostly under pKd 3.1 to 4
Details: plain residues with an end cap or a label only (N-terminal biotin on a linker: ado-ado)

Chain of MAST2, Q6P0Q8 (Q6P0Q8 1099-1202): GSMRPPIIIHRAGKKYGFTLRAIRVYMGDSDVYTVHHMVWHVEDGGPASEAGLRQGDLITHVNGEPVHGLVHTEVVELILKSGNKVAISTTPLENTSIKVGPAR

pKd	Binder
3.65	PKSNSSKEYV [CLDN7, O95471]

Molecular target: NHERF4_2, Q86UT5
Assay: holdup assay
Design: key: below the threshold = too weak to quantify, mostly under pKd 3.1 to 4
Details: plain residues with an end cap or a label only (N-terminal biotin on a linker: ado-ado)

Chain of NHERF4_2, Q86UT5 (Q86UT5 220-308): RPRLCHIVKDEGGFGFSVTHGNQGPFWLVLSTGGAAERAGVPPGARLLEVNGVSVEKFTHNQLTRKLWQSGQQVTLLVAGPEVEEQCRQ

pKd	Binder
below the threshold	PKSNSSKEYV [CLDN7, O95471]

Molecular target: T8, ARHGEF11, O15085
Assay: holdup assay
Design: key: below the threshold = too weak to quantify, mostly under pKd 3.1 to 4
Details: plain residues with an end cap or a label only (N-terminal biotin on a linker: ado-ado)

pKd	Binder
below the threshold	PKSNSSKEYV [CLDN7, O95471]

Molecular target: T9, SYNJ2BP, P57105
Assay: holdup assay
Design: key: below the threshold = too weak to quantify, mostly under pKd 3.1 to 4
Details: plain residues with an end cap or a label only (N-terminal biotin on a linker: ado-ado)

pKd	Binder
below the threshold	PKSNSSKEYV [CLDN7, O95471]

Molecular target: GRIP2_3, Q9C0E4
Assay: holdup assay
Design: key: below the threshold = too weak to quantify, mostly under pKd 3.1 to 4
Details: plain residues with an end cap or a label only (N-terminal biotin on a linker: ado-ado)

Chain of GRIP2_3, Q9C0E4 (Q9C0E4 238-339): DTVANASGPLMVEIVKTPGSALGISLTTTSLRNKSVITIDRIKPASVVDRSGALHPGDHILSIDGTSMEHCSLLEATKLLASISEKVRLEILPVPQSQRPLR

pKd	Binder
below the threshold	PKSNSSKEYV [CLDN7, O95471]

Molecular target: MAGI1_1, Q96QZ7
Assay: holdup assay
Design: key: below the threshold = too weak to quantify, mostly under pKd 3.1 to 4
Details: plain residues with an end cap or a label only (N-terminal biotin on a linker: ado-ado)

Chain of MAGI1_1, Q96QZ7 (Q96QZ7 1-106): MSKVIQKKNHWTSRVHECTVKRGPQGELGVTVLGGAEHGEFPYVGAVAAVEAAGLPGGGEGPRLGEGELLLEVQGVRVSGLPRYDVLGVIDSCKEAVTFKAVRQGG

pKd	Binder
below the threshold	PKSNSSKEYV [CLDN7, O95471]

Molecular target: T10, GRIP1_7, Q9Y3R0
Assay: holdup assay
Design: key: below the threshold = too weak to quantify, mostly under pKd 3.1 to 4
Details: plain residues with an end cap or a label only (N-terminal biotin on a linker: ado-ado)

pKd	Binder
below the threshold	PKSNSSKEYV [CLDN7, O95471]

Molecular target: DLG4_2, P78352
Assay: holdup assay
Design: key: below the threshold = too weak to quantify, mostly under pKd 3.1 to 4
Details: plain residues with an end cap or a label only (N-terminal biotin on a linker: ado-ado)

Chain of DLG4_2, P78352 (P78352 155-259): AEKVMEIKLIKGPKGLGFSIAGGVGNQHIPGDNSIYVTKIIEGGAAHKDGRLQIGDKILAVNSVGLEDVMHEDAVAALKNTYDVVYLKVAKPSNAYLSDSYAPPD

pKd	Binder
below the threshold	PKSNSSKEYV [CLDN7, O95471]

Molecular target: MAGI2_5, Q86UL8
Assay: holdup assay
Design: key: below the threshold = too weak to quantify, mostly under pKd 3.1 to 4
Details: plain residues with an end cap or a label only (N-terminal biotin on a linker: ado-ado)

Chain of MAGI2_5, Q86UL8 (Q86UL8 915-1017): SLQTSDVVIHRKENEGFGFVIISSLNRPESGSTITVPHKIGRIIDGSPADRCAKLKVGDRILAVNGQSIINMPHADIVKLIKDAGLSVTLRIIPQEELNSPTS

pKd	Binder
below the threshold	PKSNSSKEYV [CLDN7, O95471]

Molecular target: MAGI1_2, Q96QZ7
Assay: holdup assay
Design: key: below the threshold = too weak to quantify, mostly under pKd 3.1 to 4
Details: plain residues with an end cap or a label only (N-terminal biotin on a linker: ado-ado)

Chain of MAGI1_2, Q96QZ7 (Q96QZ7 456-580): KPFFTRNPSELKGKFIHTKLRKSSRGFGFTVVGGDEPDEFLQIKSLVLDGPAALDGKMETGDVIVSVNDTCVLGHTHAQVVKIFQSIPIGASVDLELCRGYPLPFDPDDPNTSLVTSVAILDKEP

pKd	Binder
below the threshold	PKSNSSKEYV [CLDN7, O95471]
